Measured values published in US5688671A, “Mutant aspartokinase gene” (Ajinomoto Co., Inc., priority 1993, dated 1997).
Positions count from the first letter of the chain named.

B1: Thr: mutant aspartokinase 279 Ala→Thr from AJ3463, plasmid p399AK9 (p399AK9B); SEQ ID NO: 4 and 6 (protein)
chain: MEEAVLTGVATDKSEAKVTVLGISDKPGETAKVFRALADAEINIDMVLQNVSSVEDGTTDITFTCPRADGRRAMEILKKLQVQGNWTNVLYDDQVGKVSLVGAGMKSHPGVTAEFMEALRDVNVNIELISTSEIRISVLIREDDLDAAARALHEQFQLGGEDEAVVYAGTGR
B2: Wild type: wild type aspartokinase of Corynebacterium glutamicum ATCC 13869, plasmid p399AKY (p399AKYB); SEQ ID NO: 3 and 5 (protein)
chain: B1 chain with T30A
B3: Pro: mutant aspartokinase 279 Ala→Pro, plasmid p399AKAP (p399AKAPB) (protein, UniProt P26512 1-421, looked up, variant A279P)
Aspartokinase: MALVVQKYGGSSLESAERIRNVAERIVATKKAGNDVVVVCSAMGDTTDELLELAAAVNPVPPAREMDMLLTAGERISNALVAMAIESLGAEAQSFTGSQAGVLTTERHGNARIVDVTPGRVREALDEGKICIVAGFQGVNKETRDVTTLGRGGSDTTAVALAAALNADVCEIYSDVDGVYTADPRIVPNAQKLEKLSFEEMLELAAVGSKILVLRSVEYARAFNVPLRVRSSYSNDPGTLIAGSMEDIPVEEAVLTGVATDKSEAKVTVLGISDKPGEPAKVFRALADAEINIDMVLQNVSSVEDGTTDITFTCPRSDGRRAMEILKKLQVQGNWTNVLYDDQVGKVSLVGAGMKSHPGVTAEFMEALRDVNVNIELISTSEIRISVLIREDDLDAAARALHEQFQLGGEDEAVVYAGTGR
B4: Ser: mutant aspartokinase 279 Ala→Ser, plasmid p399AKAS (p399AKASB) (protein, UniProt P26512 1-421, looked up, variant A279S)
Aspartokinase: B3 Aspartokinase with P279S
B5: Val: mutant aspartokinase 279 Ala→Val, plasmid p399AKAV (p399AKAVB) (protein, UniProt P26512 1-421, looked up, variant A279V)
Aspartokinase: B3 Aspartokinase with P279V
B6: Cys: mutant aspartokinase 279 Ala→Cys, plasmid p399AKAC (p399AKACB) (protein, UniProt P26512 1-421, looked up, variant A279C)
Aspartokinase: B3 Aspartokinase with P279C
B7: Asp: mutant aspartokinase 279 Ala→Asp, plasmid p399AKAD (protein, UniProt P26512 1-421, looked up, variant A279D)
Aspartokinase: B3 Aspartokinase with P279D

Tested on: aspartokinase
Test: Aspartokinase (AK) activity of cell-disrupted solutions of Corynebacterium glutamicum strains, with and without L-lysine/L-threonine
Format: biochemical, Corynebacterium glutamicum (Brevibacterium lactofermentum)
Settings: 2 mM lysine + threonine; plasmids introduced into AJ12036
Text: When a wild type strain is used as a donor for the DNA fragment containing the AK gene, a DNA fragment containing a wild type AK gene can be obtained. The DNA fragment containing the gene for AK in which synergistic feedback inhibition by L-lysine and L-threonine is substantially desensitized can be obtained by using a mutant strain in which synergistic feedback inhibition on the AK activity by L-lysine and L-threonine is substantially desensitized. The mutant strain can be obtained, for example, from a group of cells subjected to an ordinary mutation treatment, ultraviolet light irradiation, or a treatment with a mutating agent such as N-methyl-N'-nitro-N-nitrosoguanidine (NTG). The AK activity can be measured by using a method described in Miyajima, R. et al., The Journal of Biochemistry (1968), 63(2), 139-148.
Strains were prepared by introducing the wild type AK plasmid p399AKYB and the mutant AK plasmid p399AK9B respectively into AJ12036 strain (FERM P-7559) as a wild type strain of Corynebacterium glutamicum (Brevibacterium lactofermentum). The genes were introduced into Corynebacterium by means of an electric pulse method. The aspartokinase activity was measured for Corynebacterium glutamicum (Brevibacterium lactofermentum) AJ12036 strain as a host, AJ12690 strain harboring the wild type AK plasmid, and AJ12691 (FERM P12918) strain harboring the mutant AK plasmid. The activity was measured in accordance with an ordinary method (see Miyajima, R. et al., The Journal of Biochemistry (1968) 63(2), 139-148). […]
Strains were prepared by introducing 8 kinds of the plasmids shown in Table 3 into AJ12036 strain (FERM P-7559) as a wild type strain of Corynebacterium glutamicum (Brevibacterium lactofermentum) in the same manner as Example 3. The AK activity was measured for each of the strains. […] The desensitization degree of inhibition by lysine and/or threonine was similar to those in Example 6.

Molecule	2 mM Lys + Thr (desensitization degree of inhibition)
B1	78.3%
B2	6.2%
B3	85.2%
B4	37.0%
B5	75.5%
B6	60.6%

Same assay, conditions: lysine 5 mM; plasmids introduced into AJ12036

Molecule	5 mM Lys (desensitization degree of inhibition)
B1	58.7%
B2	52.7%
B3	77.5%
B4	55.0%
B5	60.5%
B6	66.5%

Same assay, conditions: lysine alone, threonine alone and concerted inhibition; plasmids in AJ12036

Molecule	degree of desensitization of inhibition, ranking
B3	highest degree of desensitization of inhibition

Same assay, conditions: plasmids introduced into AJ12036; Table 5

Molecule	Specific activity
B1	374.4 mU/mg protein
B2	316.4 mU/mg protein
B3	125.0 mU/mg protein
B4	406.8 mU/mg protein
B5	448.9 mU/mg protein
B6	267.0 mU/mg protein

Same assay, conditions: threonine 5 mM; plasmids introduced into AJ12036

Molecule	5 mM Thr (desensitization degree of inhibition)
B1	109.1%
B2	86.8%
B3	123.2%
B4	114.4%
B5	103.5%
B6	135.7%

Tested on: AK
Test: Thermal stability of AK, treatment at 55° C. for 1.5 hour
Format: biochemical, Corynebacterium glutamicum
Settings: not given
Experimental: The activity-holding ratio after a treatment at 55° C. for 90 minutes is indicated by %.
Thermal stability was investigated as an index of stability of the enzyme structure constructed by the introduction of mutation. The treatment condition was set at 55° C. for 1.5 hour in which the activity of the wild type AK was about 80%.

Molecule	activity after thermal treatment (activity-holding ratio)
B2	about 80%

Same assay, conditions: FIG. 6

Molecule	thermal stability compared with the wild type
B1	higher stability than that of the wild type
B5	highest stability
B6	higher stability than that of the wild type

Tested on: Corynebacterium glutamicum (Brevibacterium lactofermentum) AJ12036
Test: L-lysine productivity evaluated by cultivation in production medium
Format: cell-based
Settings: plasmids introduced into AJ12036; cultivation as in Example 3
Experimental: The lysine productivity was evaluated by cultivation for the wild type strain AJ12036, the wild type AK plasmid-harboring strain AJ12690, and the mutant AK plasmid-harboring strain AJ12691 (FERM P-12918). The evaluation by cultivation was performed by inoculating the strains to a production medium (containing glucose 100 g, (NH4)2 SO4 55 g, KH2 PO4 1 g, MgSO4.7H2 O 1 g, soybean protein acid hydrolysate "Mamenou" (product of Ajinomoto Co., Ltd., trade name) 50 ml, FeSO4.7H2 O 10 mg, MnSO4.4H2 O 10 mg, nicotinic acid amide 5 mg, and CaCO3 50 g in 1 l of pure water, pH 8.0), and cultivating them with reciprocatory shaking at 31.5° C. for 72 hours. […] The plasmid-holding ratio upon completion of the cultivation was measured by using an index of chloramphenicol resistance as a drug resistance marker of the plasmid.
The lysine productivity was further evaluated by cultivation for the 9 kinds of these strains by using a method similar to that in Example 3.

Molecule	Lys--HCl
B1	24.25 g/L
B2	0.00 g/L
B3	25.11 g/L
B4	5.72 g/L
B5	25.02 g/L
B6	13.41 g/L

Tested on: AK
Test: AK enzyme activity and inhibition by lysine/threonine in cell-free extracts of AK-deficient Escherichia coli Gif106M1 transformants
Format: biochemical, Corynebacterium glutamicum
Settings: E. coli Gif106M1 cell-free extracts
Text: Bacteriol. 112, 84-92 (1972), Theze, J. et al., J. […] It is known that most of genes of bacteria belonging to the genus Corynebacterium are expressed in Escherichia coli. In addition, the AK gene was ligated at a position downstream from lac promoter on pHSG399. Thus it was postulated that the gene could be expressed in Escherichia coli. […] Thus it was confirmed that AK from the bacteria belonging to the genus Corynebacterium was expressed and operated in cells of Escherichia coli. Subsequently, cell-free extracts were prepared from bacterial cells, and the enzyme activity of AK was measured. Upon measurement of the enzyme activity of AK, various concentrations of lysine and threonine were added to enzyme reaction solutions to investigate the degree of inhibition (FIG. 2). […] (Ki value: 0.4 mM→5.0 mM). […] Cell-free extracts were prepared, and enzymes were analyzed.

Molecule	inhibition by lysine alone as compared with the wild type	inhibition by threonine desensitized	concerted inhibition by lysine+threonine	degree of activation by threonine	AK activity
B1	little improvement	100%	–	–	–
B3	mitigated	–	desensitized	not less than 120%	–
B4	equivalent to that in the wild type	–	enhanced	–	–
B7	–	–	–	–	inactivated
B6	equivalent to that in the wild type	–	enhanced	–	–

Same assay, conditions: E. coli Gif106M1 cell-free extracts; Table 4

Molecule	Specific activity
B1	12.9 mU/mg protein
B2	15.3 mU/mg protein
B3	2.8 mU/mg protein
B4	8.2 mU/mg protein
B5	21.8 mU/mg protein
B7	1.5 mU/mg protein
B6	15.4 mU/mg protein

Same assay, conditions: fraction of wild type specific activity

Molecule	specific activity relative to that of the wild type
B3	about 1/5

Same assay, conditions: lysine 5 mM+threonine 5 mM; activity without addition = 100%; E. coli Gif106M1 extracts

Molecule	5 mM Lys + Thr (degree of desensitization of inhibition, activity-holding ratio)
B1	50.4%
B2	9.2%
B3	103.8%
B4	18.4%
B5	52.3%
B6	17.0%

Same assay, conditions: lysine 5 mM; activity without addition = 100%; E. coli Gif106M1 extracts

Molecule	5 mM Lys (degree of desensitization of inhibition, activity-holding ratio)
B1	47.0%
B2	42.3%
B3	76.9%
B4	52.6%
B5	51.1%
B6	56.3%

Same assay, conditions: threonine 5 mM; activity without addition = 100%; E. coli Gif106M1 extracts

Molecule	5 mM Thr (degree of desensitization of inhibition, activity-holding ratio)
B1	103.5%
B2	62.3%
B3	126.9%
B4	131.6%
B5	98.3%
B6	108.1%
